Measurements taken from publication PMC4222845.

Key:
[1] = molecular target: Scc3 (C. pneumoniae AR39); experiment: ITC
[2] = molecular target: Scc3-CopNΔ84 complex (C. pneumoniae AR39); experiment: ITC
[3] = molecular target: CopNΔ84 (C. pneumoniae AR39); experiment: SEC; Superdex 200 10/300 GL, 10 mM Tris-HCl pH 7.5, 150 mM NaCl, 0.5 mL/min, 4°C; equivalent molar concentrations, incubated 15 minutes; molecular weight from BioRad gel-filtration standards

For “synthetic peptide (CopB residues 163–173)”, the Kd [1] was 79 µM and the Kd [2] was 49 µM.
In the case of Scc3 (natural protein), the stoichiometry N [3] is reported as 1.
